Data from the DeepSol protein solubility set.

Assay: soluble on expression in E. coli; label from the status in PepcDB or PDB records

Sequence | soluble on expression in E. coli
MGSMSMNAEQTVAELIARSNRLGSDPKNTNYAGGNTSAKGTDTDPVTGQPVELLWVKGSGGDLGTLTENGLAVLRLDRMRALVDVYPGVEREDEMVAAFDYCLHGRGGAAPSIDTAMHGLVDAAHVDHLHPDSGIALATAADGEALTKQIFGDRVVWVPWRRPGFQLGLDIADIKRRNPQAIGTILGGHGITAWGSTSAEAEAHSLEIIETAERYIAENGRPEPFLEHHHHHH | not soluble
MDGYTGSHVVRCALRLAPLVFVRPGELRKAEWKDIDLDGGEWRYTVTKTNTPHIVPLSTQAVEILKELQALTGRSRFVFPGARTNGRPMSDNAILAALRRMGIDKEEMSGHGFRAMARTILDEVLGVRPDFIEHQLAHSVRDPLEHHHHHH | not soluble
MGSDKIHHHHHHMSMEAASLDAVSEEQAQSVSILEQAIFATKQTDSSRAEELIRSLTEEALKGTVQWDKNLTVTFNKAITRLDDIISKQLAAIMHNEELQKLEGSWRGLHHTVKNSETNETLKIRVMSLSKKELHKDLSKAVEFDQSQMFKKIYEAEFGTPGGEPYGCLVGDYEFSNHPEDVETLSLISNVAAAGFCPFVSAAGSSLFGFDEWTELSKPRDLEKVFESLEYTQWRSFRDSDDSRFVTLTMPRVLARLPYGEATKPVEEFCYEEFELDLESGRAKVADHDDYCWMNAAYVMATNMGQAFSKYGFCTAIRGAEGGGKVEGLPAHVFTSDDGDPDLKCPTEIGITDRREAELSKLGFLPLCHYKHTDYAVFFGSQSCQKPKIMSNHDATANAAISARLPYLMATSRFAHYLKVMARDKIGSFMEAEDVESWLNRWILSFVNASEGGGQEIRAKYPLADAKVEVKEIPGQPGSYNAVAWLRPWLQMEELTASLRLVAKIPKVG | not soluble
MASPRANDAPIVLLHGFTGWGREEMLGFKYWGGVRGDIEQWLNDNGYRTYTLAVGPLSSNWDRACEAYAQLVGGTVDYGAAHAAKHGHARFGRTYPGLLPELKRGGRVHIIAHSQGGQTARMLVSLLENGSQEEREYAKAHNVSLSPLFEGGHHFVLSVTTIATPHDGTTLVNMVDFTDRFFDLQKAVLKAAAVASNVPYTSQVYDFKLDQWGLRRQPGESFDHYFERLKRSPVWTSTDTARYDLSIPGAEKLNQWVQASPNTYYLSFSTERTHRGALTGNYYPELGMNAFSAVVCAPFLGSYRNEALGIDDRWLENDGIVNTVSMNGPKRGSSDRIVPYDGTLKKGVWNDMGTYNVDHLEVIGVDPNPSFDIRAFYLRLAEQLASLRP | soluble
MSLAPIRLALIEGLSGPFANAGEAVDRNLRIAIEGVNARGGVRLPDGRHPLALVRFDSKNMVDESLLQLQAASDAGIRFVLQGNSSAAAAALSASIARHNDRAPDARMLFLNYAAVDPALTNEACSFWHFRFDASADMRMHALTEVIRADPSVKQVYLIGQDYTFGRQVAQLARRQLGEKRPDIAIAGEVLHPIGKVKDFAPYVARIAASGADAVITGNWGNDLTLLVKAARDAGLKARFFTFYGNSLGAPGAMGEAGVGRVVAVAEWHPNLGGTGSDAFYKAFRARYPAPVDDYPLLRDQMMIDLLATAIERAGTTEAGAVARALEGASLDTGFHRLTLRAEDHQAIQPLVVMQMARAGTPGAPFDIEGSGYGFRTLKVIPPAQTALPTTCRMARYEGHHHHHH | soluble
MKIGIIGAGFVARAIAKLALQNGHQVMLSNSRDPQSLFSLRPMIGCDIGTATQAALFGDIIVIAVPFTAIDKLPEQALQGKSVIDAVNYYTERDGKVAALDTRSTTTSELLAGYLPGAKITKAFNAITMTQLERDGLPAGSAHRRALPLAGDHEQEKTIVAELYDAFGFDVVDAGKLSEGWRFERNMPSYCVRMTKAELTTALALSSRLEHHHHHH | soluble
MSLTNNNHRLISNSFSTYSIDTSRAYENYLTHWTEWKNNRIQEEQRDIAFQRLVSCLQNQETNLDLSELGLTTLPEIPPGIKSINISKNNLSLIPPLPASLTQLNVSYNRLIELPALPQGLKLLNASHNQLITLPTLPISLKELHVSNNQLCSLPVLPELLETLDVSCNGLAVLPPLPFSLQEISAIGNLLSELPPLPHNIHSIWAIDNMLTDIPYLPENLRNGYFDINQISHIPESILNLRNECSIDISDNPLSSHALQSLQRLTSSPDYHGPQIYFSMSDGQQNTLHRPLADAVTAWFPENKQSDVSQIWHAFEHEEHANTFSAFLDRLSDTVSARNTSGFREQVAAWLEKLSASAELRQQSFAVAADATESCEDRVALTWNNLRKTLLVHQASEGLFDNDTGALLSLGREMFRLEILEDIARDKVRTLHFVDEIEVYLAFQTMLAEKLQLSTAVKEMRFYGVSGVTANDLRTAEAMVRSREENEFTDWFSLWGPWHAVLKRTEADRWALAEEQKYEMLENEYPQRVADRLKASGLSGDADAEREAGAQVMRETEQQIYRQLTDEVLALRLPENGSQLHHSEGHHHHHH | soluble
SESPWIAEDTSQIQTKLLEFAKSPEVFDWMVKIRRKIHENPELGYEELETSKLIRSELELIGIKYRYPVAITGVIGYIGTGEPPFVALRADMDALPIQEGVEWEHKSKIAGKMHACGHDGHVTMLLGAAKILHEHRHHLQGTVVLIFQPAEEGLSGAKKMREEGALKNVEAIFGIHLSARIPFGKAASRAGSFLAGAGVFEAVITGKGGHAAIPQHTIDPVVAASSIVLSLQQLVSRETDPLDSKVVTVSKVNGGNAFNVIPDSITIGGTLRAFTGFTQLQQRVKEVITKQAAVHRCNASVNLTPNGREPMPPTVNNKDLYKQFKKVVRDLLGQEAFVEAAPVMGSEDFSYFAETIPGHFSLLGMQDETNGYASSHSPLYRINEDVLPYGAAIHASMAVQYLKEKASKGSVSGFHEEL | soluble
MQNYSVSVTSDRPAPFQQITIPLADGTVLHARLWLPQTPLADRVPLVLEWIPYRQSDGTALADSMMHGYFAEQGIAAARVDIRGSGNSDGLLHDEYLKQEQDDACEVIAWFARQDWCNGNVGLIGISWGGFAGLQIAARRPPALKCIITACSTDNRYTDDVHYMGGALLSDGMQWGSGLFAQLGRPADPKHVGDRWREMWMNRLEGIKEPPLATWMQHTTYDDFWKHGSVCEDYDEIQCAVWAVGGWVDGYTDPILRLMEKLSVPKKALIGPWTHMYPTWGQPGPQIGFLQEAMRWWRHWLMDEDTGIMDEPQLTLWLGKDPKPDTRAPDIGGRWIGLP | not soluble
GPGSMHASVVLNMCTASQYTRRTLQSLFERREVDLSALVHVLADNAGYLAATQQGCISLMRVFELCDAAQKAELVRELLPKLAALSMDAFANYMVQCAIEHSDRATAAQYVVAHFTGNILQMSCNKHSSNVLEVVLRCCGEVPAVRRLFLDELVFNPAALKEVVGDLYGNFVVQALIGVVTNPMEFKRVEDRLRPALVGCQFAAKIEGKIKAKRPVPPHAGGAVHHHSYPQSRQQRPLSVPCTMPDHVGPCAPSVRATIALPQAPVMSLGEARVPTQGYCHRPYDCNPLCCAPLAAEQQQPQNVVQAPSGHVYPVDHFQFPILKERTAARAAGAVPVTDGEDSGPVYGPSPAARRHLQQQQQQAFRPPFNIMC | not soluble
LSSKYSRNTELRRVEDNDIYRLAKILDENSCWRKLMSIIPKGMDVQACSGAGCLNFPAEIKKGFKYTAQDVFQIDEAANRLPPDQSKSQMMIDEWKTSGKLNERPTVGVLLQLLVQAELFSAADFVALDFLNESTPARPVDGPGALISLELLE | soluble
VKVRYENDKYLIPFASLDANQRMEFDLKDPQGKVILLAGKKLTSRKIKELKENHLEWVEYPMDILLNRHLAEPVMVGKEVLLDMLTQLDKNKLEKIHDLG | not soluble
MENVSDDRFAEMVWEAVSGGATLKDVHGIPQDMMEGLYAHAYDFYHKGRLDEAETFFRFLCIYDFYNPDYIMGLAAVCQLKKQFQKAVDLYAVAFALSKNDYRPVFFTGQCQLFMRKAAKARQCFELVCEQSGLEHHHHHH | not soluble
MQQNIQYTYSSDPRSGGNQNQQLHGISQFQQNSYQPTTYSNSNANNFHSSNSATFIPNSVTQTPQRRMGEEKSLVNMLDAYFIDSTTPSTSTSWNNQQPVQMSSIQQSVGSYNQQIPQLKVGDVDLQVEGMNVKLSSSPDKGEKDRVKKARQAEAARMRYHRLSNEEKRELNLKRTLAQKRKRQREKEMEELESILRETNDIQEDPDITEQLREKRMRAKWAEAARTRYARMTPEERRAHNTRRRMRQMQNAMSAIKACGMATGDPQKDDEAVRLHIKTQNAKKAEAARQRYHRMNDDEKRVYNQRRTEAFRRRRMEEEMLLAMPIGRINGEALDRAQQIVVRNAKRAEAARLRYQRMTPDQRKVAKQEPKEESWPSHEQSDTQIDHDLDLGDSYNQKRYTPKRRRNEMDDMISAGQMAVGSSGTITMGTGTPAKKDDMDALSSLERDVVKRTQHAQQILLRQRANQSSGTPRSVTPPPQAYIISNGQQQHQQLVGNQGNNGIGQHQVLHQGHMQQQQIQVSHQQSSQSIPQNIYTSGMIIQNQGQQQQGQQQQQGQSQQILNNPYRT | not soluble
MFFLEHGKVRTFLTPTLRCPMEKTTTQELLAQAEKICAQRNVRLTPQRLEVLRLMSLQDGAISAYDLLDLLREAEPQAKPPTVYRALDFLLEQGFVHKVESTNSYVLCHLFDQPTHTSAMFICDRCGAVKEECAEGVEDIMHTLAAKMGFALRHNVIEAHGLCAACVEVEACRHPEQCQHDHSVQVKKKPR | not soluble
MSLNMLVINGTPRKHGRTRIAASYIAALYHTDLIDLSEFVLPVFNGEAEQSELLKVQELKQRVTKADAIVLLSPEYHSGMSGALKNALDFLSSEQFKYKPVALLAVAGGGKGGINALNNMRTVMRGVYANVIPKQLVLDPVHIDVENATVAENIKESIKELVEELSMFAKAGNPGVEGGSHHHHHH | soluble
MEDVNDLYTMALGEFYAPAPSTSSIKKPAKVPEDQPSTSSAPPTTALFRQLLIGSRSQIERLKKENEELKTKLKHATSSGGVVICPNCTHHFKDRQCPMRPRAMKKMRARNCVELEFGNLEDLEMWLYLNQLETNNDGMPTVMNVKKATNCPEKSLKESGSLLPELVEKKREEKRQQEDQKAVVLEKRKPVTQKVQDHLKRRSKSPIGRGKDQSDKDIISNKKRKLNRQSKEEIDERSKIAKKAPISQRVQFPRMPAPQAPDAVASKVREQKPVDITPHPRPSASRNSESQKPVASKIQEKKTEVRTKSSPTNPIVNSKQPSQKKPADLTPHPKRPPITPETLPSRNSEIQKPAASKIQEKKTEVIARSQKSEASTKIAQKPSPTNPTVNFKQPSQKPADLTPKPITLASKSPITRSSEVSTEPSTKPKRAPIVWDDKPKDSTAKELPKELPKAKSHFEFKVKPIEKKDASPPKTTSTSSASPPNPDPAMKQKYKFVPTSKKQKLTETKNKDQKSTINESPVECQNSGQNEASNPTKLKDQELNKHVVPKNPEAIETPDERQESVQKSNEASATSSTKPSDPVETPSDEVDPQETQWKVYSVKQSRPVLDHIYKFALARQSLKRHWNDKMIVLNGDVPQEKVEESKPLSIAESLKRIGVSVEGIAVLQKQLKASAPEPPVLSTTVDDEDALGEFFPDLAKRKTSEIRPVSAESLWSVTDREEEELKILVREDSVVPPSGDCLMDVEAYEITEDLESQTYEASQSDWKEFCLEDVDDDVDETLRERKLSEMEKSAENLDENMDWIENLEELGNDDEQEEEEEEDQEQEQEQVAPSRSISVPLEMKNDFVLSDEDDPVSPVTSTPRKEDFNDDLSGCLEEDEEDTENLLPQAKDDSFIDELDWNYGTDYEEEEVEEAEVVVEEKDNSGSDHDATLEDGEISENDDGEDEKKEEEPKKPIRERTKFMITEDQLGPKTDEEEDEPPEIHRAPPRKRKINYNRQKGSEDNRHRNYRKRDTRPATYLSLLKRRNS | not soluble
MGSDKIHHHHHHMKKTIYKVLVSFYQYVGLGKKFHPSHDTVLIIGGSSNELGIELCETFIEDYHTKVINIDTIDSINGKNARRSEKLYTFISCKDFSDIKCLEESMLYLQNLEIIPTVLINNMQEGIESTLLKEDKFLRLDEESLNEFEKIVRYNLQSVILITKFCLSNIFPKVQAEAQEKAKGFYIVNISSVLTLKPCKSGTHFITSKCGINSFHDGITSELKLKDSNLNVKTLIAYLPSFESEAHWKRLSPSISKHLVHCLLEGRYGDTILESKRSIGDILLITGFKSSFT | not soluble
